The series is described as follows: self-splicing fitness, log relative to wild type (ln ratio); higher = more splicing; Tetrahymena group I intron in knt gene, E. coli kanamycin selection, DiMSum; sequences stand for … in CUCUCU…GGAGGGAAAAGUUAUCAGGCAUGCACCUGGUAGCUAGUCUUUAAACCAAUAGAUUGCAUCGGUUUAAAAGGCAAGACCGUCAAAUUGCGGGAAAGGGGUCAACAGCCGUUCAGUACCAAGUCUCAGGGGAAACUUUGAGAUGGCCUUGCAAAGGGUAUGGUAAUAAGCUGACGGACAUGGUCCUAACCACGCAGCCAAGUCCUAAGUCAACAGAUCUUCUGUUGAUAUGGAUGCAGUUCACAGACUAAAUGUCGGUCGGGGAAGAUGUAUUCUUCUCAUAAGAUAUAGUCGGACCUCUCCUUAAUGGGAGCUAGCGGAUGAAGUGAUGCAACACUGGAGCCGCUGGGAACUAAUUUGUAUGCGAAAGUAUAUUGAUUAGUUUUGGAGUACUCGUGGUCG
Put shortly: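 Fitness was computed with DiMSum as the error-weighted combination of replicate fold changes, kanamycin versus none, each normalised to wild type. The library randomised all eight intron nucleotides of the P1ex region, with the intron placed in the knt kanamycin-resistance gene on pET-22b(+) in E. coli BL21(DE3). Six replicate transformations were grown overnight at 37°C or 30°C on LB agar with or without 25 μg/mL kanamycin, plus 100 μg/mL carbenicillin, 50 μM IPTG and 0.2% rhamnose. Pooled colonies were amplicon-sequenced on an Illumina HiSeq 2500.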

This note sets out measurements from the supplement of paper PMC7877785.

± gives the uncertainty stated by the source.

For UCAAAGCAAUAUUACGUCAG, the “self-splicing fitness (ln)” value reads like this: (30 °C) -1.75 ± 0.086; (37 °C) -0.944 ± 0.097.

For UGUUAGCAAUAUUACGACUA, the “self-splicing fitness (ln)” value is 0.407 ± 0.22 (30 °C) and -0.164 ± 0.19 (37 °C).

As to UUGGAGCAAUAUUACGUGAG, the “self-splicing fitness (ln)” value is, setting by setting: (30 °C) -1.84 ± 0.13; (37 °C) -1.54 ± 0.2.

With CCUGAGCAAUAUUACGUUCG, the “self-splicing fitness (ln)” value by setting is: (30 °C) -3.43 ± 0.26; (37 °C) -2.87 ± 0.38.

On to ACCCAGCAAUAUUACGUCCG, for which the “self-splicing fitness (ln)” value runs as follows: (30 °C) -3.83 ± 0.22; (37 °C) -0.701 ± 0.14.

Consider ACUGAGCAAUAUUACGGAGU, for which the “self-splicing fitness (ln)” value is -2.8 ± 0.41 (30 °C) and -1.78 ± 0.33 (37 °C).

In the case of CGUGAGCAAUAUUACGGAGA, the “self-splicing fitness (ln)” value is, setting by setting: (30 °C) -3.88 ± 0.33; (37 °C) -1.57 ± 0.25.

AGCAAGCAAUAUUACGGCGG: the “self-splicing fitness (ln)” value was -1.29 ± 0.083 (30 °C) and 0.133 ± 0.11 (37 °C).

Consider AUUUAGCAAUAUUACGUAGU, for which the “self-splicing fitness (ln)” value by setting is: (30 °C) -1.54 ± 0.079; (37 °C) -0.851 ± 0.1.

As for CACAAGCAAUAUUACGAUGA, the “self-splicing fitness (ln)” value reads like this: (30 °C) -2.99 ± 0.11; (37 °C) -1.21 ± 0.09.

GAGUAGCAAUAUUACGUAAG: the “self-splicing fitness (ln)” value runs as follows: (30 °C) -2.82 ± 0.14; (37 °C) 0.0773 ± 0.14.

GGUUAGCAAUAUUACGAUCG: the “self-splicing fitness (ln)” value reads like this: (30 °C) -0.314 ± 0.14; (37 °C) -0.207 ± 0.27.

Take UUUGAGCAAUAUUACGGUUU: the “self-splicing fitness (ln)” value was -3.23 ± 0.48 (30 °C) and -1.92 ± 0.32 (37 °C).

Turning to GAGCAGCAAUAUUACGGCGU, the “self-splicing fitness (ln)” value is -0.163 ± 0.14 (30 °C) and 0.683 ± 0.18 (37 °C).

For CUAAAGCAAUAUUACGUUUU, the “self-splicing fitness (ln)” value is, setting by setting: (30 °C) -4.6 ± 0.26; (37 °C) -2.58 ± 0.21.

In the case of CCGCAGCAAUAUUACGGCCG, the “self-splicing fitness (ln)” value (30 °C) is -0.461 ± 0.12 and the “self-splicing fitness (ln)” value (37 °C) is 0.198 ± 0.15.

On to CCGAAGCAAUAUUACGGCAG, for which the “self-splicing fitness (ln)” value by setting is: (30 °C) -2.86 ± 0.15; (37 °C) -1.44 ± 0.16.

As for AAAUAGCAAUAUUACGCUAG, the “self-splicing fitness (ln)” value runs as follows: (30 °C) -1.55 ± 0.13; (37 °C) -1 ± 0.15.

Turning to CGUUAGCAAUAUUACGACUC, the “self-splicing fitness (ln)” value was -0.808 ± 0.25 (30 °C) and 0.024 ± 0.23 (37 °C).

Consider AGUUAGCAAUAUUACGUUUG, for which the “self-splicing fitness (ln)” value is -3.13 ± 0.24 (30 °C) and -1.8 ± 0.29 (37 °C).

UACAAGCAAUAUUACGGCAG: the “self-splicing fitness (ln)” value is, setting by setting: (30 °C) -0.426 ± 0.078; (37 °C) -0.134 ± 0.11.

CUUCAGCAAUAUUACGACUA: where the note is “30 °C”, the “self-splicing fitness (ln)” value is -2.12 ± 0.39.

As to UGUAAGCAAUAUUACGCUUA, the “self-splicing fitness (ln)” value runs as follows: (30 °C) -1.79 ± 0.15; (37 °C) -2.39 ± 0.19.

GAUAAGCAAUAUUACGUGCU: the “self-splicing fitness (ln)” value was -2.32 ± 0.18 (30 °C) and -1.71 ± 0.19 (37 °C).

With UCUAAGCAAUAUUACGGUGC, the “self-splicing fitness (ln)” value runs as follows: (30 °C) -2.58 ± 0.12; (37 °C) -2.85 ± 0.2.

For GGUUAGCAAUAUUACGUCCC, the “self-splicing fitness (ln)” value (37 °C) was -2.36 ± 0.34.

For UUUCAGCAAUAUUACGGAAC, the “self-splicing fitness (ln)” value (30 °C) was -1.24 ± 0.22.

Regarding GUUCAGCAAUAUUACGCAUU, the “self-splicing fitness (ln)” value reads like this: (30 °C) -0.22 ± 0.06; (37 °C) 0.414 ± 0.078.

For UCUAAGCAAUAUUACGGUUG, the “self-splicing fitness (ln)” value was -2.82 ± 0.15 (30 °C) and -2.61 ± 0.18 (37 °C).

Consider AAAAAGCAAUAUUACGCUUU, for which the “self-splicing fitness (ln)” value by setting is: (30 °C) -4.64 ± 0.27; (37 °C) -2.32 ± 0.19.

For ACCUAGCAAUAUUACGGGCC, the “self-splicing fitness (ln)” value (30 °C) is -2.34 ± 0.18 and the “self-splicing fitness (ln)” value (37 °C) is -0.63 ± 0.16.

On to GGUUAGCAAUAUUACGUCAC, for which the “self-splicing fitness (ln)” value (37 °C) is -1.82 ± 0.23.

Take CUUGAGCAAUAUUACGGAGU: the “self-splicing fitness (ln)” value runs as follows: (30 °C) -1.09 ± 0.13; (37 °C) -1.97 ± 0.28.

CCCCAGCAAUAUUACGAUGU: the “self-splicing fitness (ln)” value is -4.53 ± 0.2 (30 °C) and -3.11 ± 0.17 (37 °C).

Consider UGUUAGCAAUAUUACGUAAC, for which the “self-splicing fitness (ln)” value is, setting by setting: (30 °C) -1.65 ± 0.46; (37 °C) -1.55 ± 0.5.

As to CGGUAGCAAUAUUACGGCUU, the “self-splicing fitness (ln)” value was -0.935 ± 0.087 (30 °C) and 0.239 ± 0.12 (37 °C).

AGACAGCAAUAUUACGAGCG: the “self-splicing fitness (ln)” value reads like this: (30 °C) -0.874 ± 0.071; (37 °C) -0.405 ± 0.081.

On to GCUGAGCAAUAUUACGGAUG, for which the “self-splicing fitness (ln)” value reads like this: (30 °C) -3.53 ± 0.18; (37 °C) -1.22 ± 0.12.

Turning to CCAGAGCAAUAUUACGUCGU, the “self-splicing fitness (ln)” value reads like this: (30 °C) -3.93 ± 0.24; (37 °C) -2.19 ± 0.21.

With CUGAAGCAAUAUUACGACAA, the “self-splicing fitness (ln)” value by setting is: (30 °C) -0.913 ± 0.13; (37 °C) 0.0189 ± 0.19.

Consider CUUAAGCAAUAUUACGUUUU, for which the “self-splicing fitness (ln)” value runs as follows: (30 °C) -4.2 ± 0.25; (37 °C) -2.07 ± 0.21.

With CUCCAGCAAUAUUACGACCU, the “self-splicing fitness (ln)” value (30 °C) is -3.4 ± 0.32.

Turning to CUAUAGCAAUAUUACGGUUU, the “self-splicing fitness (ln)” value runs as follows: (30 °C) -3.72 ± 0.12; (37 °C) -2.58 ± 0.17.

Consider CAGUAGCAAUAUUACGGCUC, for which the “self-splicing fitness (ln)” value by setting is: (30 °C) -1.36 ± 0.14; (37 °C) 0.325 ± 0.16.

GAGUAGCAAUAUUACGUAGU: the “self-splicing fitness (ln)” value was -4.34 ± 0.31 (30 °C) and -2.68 ± 0.2 (37 °C).

Regarding UGUGAGCAAUAUUACGGGAA, the “self-splicing fitness (ln)” value (37 °C) was -2.51 ± 0.33.

Consider UCACAGCAAUAUUACGUAUU, for which the “self-splicing fitness (ln)” value was -3.5 ± 0.15 (30 °C) and -2.54 ± 0.14 (37 °C).

As for CAUUAGCAAUAUUACGUAAG, the “self-splicing fitness (ln)” value is, setting by setting: (30 °C) -0.138 ± 0.057; (37 °C) 0.358 ± 0.074.

As for AAUGAGCAAUAUUACGCAGA, the “self-splicing fitness (ln)” value is -2.8 ± 0.27 (30 °C) and -1.56 ± 0.25 (37 °C).

In the case of UUCUAGCAAUAUUACGUUGC, the “self-splicing fitness (ln)” value was -4.72 ± 0.39 (30 °C) and -2.64 ± 0.22 (37 °C).

As for AACCAGCAAUAUUACGCACG, the “self-splicing fitness (ln)” value reads like this: (30 °C) -0.891 ± 0.055; (37 °C) -0.215 ± 0.078.

As to UCCCAGCAAUAUUACGAGCC, the “self-splicing fitness (ln)” value was -2.16 ± 0.28 (30 °C) and -1.96 ± 0.31 (37 °C).

Turning to CCGGAGCAAUAUUACGGAGU, the “self-splicing fitness (ln)” value reads like this: (30 °C) -3.65 ± 0.2; (37 °C) -3.41 ± 0.24.

For the sequence AGCGAGCAAUAUUACGUGAA, the “self-splicing fitness (ln)” value reads like this: (30 °C) -3.44 ± 0.19; (37 °C) -1.23 ± 0.2.

With GCCUAGCAAUAUUACGUCCA, the “self-splicing fitness (ln)” value (30 °C) was -2.37 ± 0.18 and the “self-splicing fitness (ln)” value (37 °C) is -1.38 ± 0.18.

With GUUUAGCAAUAUUACGUAGA, the “self-splicing fitness (ln)” value by setting is: (30 °C) -2.37 ± 0.15; (37 °C) -0.622 ± 0.2.

With UGAUAGCAAUAUUACGUCAA, the “self-splicing fitness (ln)” value (30 °C) is -2.44 ± 0.18 and the “self-splicing fitness (ln)” value (37 °C) was -0.767 ± 0.16.

For UCAGAGCAAUAUUACGGCUA, the “self-splicing fitness (ln)” value by setting is: (30 °C) -2.46 ± 0.28; (37 °C) -2.11 ± 0.24.

Regarding GCCCAGCAAUAUUACGUUGC, the “self-splicing fitness (ln)” value is, setting by setting: (30 °C) -1.11 ± 0.063; (37 °C) -0.368 ± 0.094.

Turning to ACAGAGCAAUAUUACGUUGU, the “self-splicing fitness (ln)” value runs as follows: (30 °C) -3.88 ± 0.2; (37 °C) -2.34 ± 0.18.

On to UCCAAGCAAUAUUACGCCGG, for which the “self-splicing fitness (ln)” value (30 °C) was -1.53 ± 0.11 and the “self-splicing fitness (ln)” value (37 °C) was -0.578 ± 0.14.

On to CUACAGCAAUAUUACGCGUG, for which the “self-splicing fitness (ln)” value (30 °C) is -1.83 ± 0.076 and the “self-splicing fitness (ln)” value (37 °C) was -1.03 ± 0.089.
